Data: patent US20240156864A1

Molecular target: CAR19.28ζ
Assay: co-IP with anti-CAR19 Ab from CAR-T cell lysate, LC-MS/MS

Sequence of CAR19.28ζ (chain, as listed by the source limits assumed): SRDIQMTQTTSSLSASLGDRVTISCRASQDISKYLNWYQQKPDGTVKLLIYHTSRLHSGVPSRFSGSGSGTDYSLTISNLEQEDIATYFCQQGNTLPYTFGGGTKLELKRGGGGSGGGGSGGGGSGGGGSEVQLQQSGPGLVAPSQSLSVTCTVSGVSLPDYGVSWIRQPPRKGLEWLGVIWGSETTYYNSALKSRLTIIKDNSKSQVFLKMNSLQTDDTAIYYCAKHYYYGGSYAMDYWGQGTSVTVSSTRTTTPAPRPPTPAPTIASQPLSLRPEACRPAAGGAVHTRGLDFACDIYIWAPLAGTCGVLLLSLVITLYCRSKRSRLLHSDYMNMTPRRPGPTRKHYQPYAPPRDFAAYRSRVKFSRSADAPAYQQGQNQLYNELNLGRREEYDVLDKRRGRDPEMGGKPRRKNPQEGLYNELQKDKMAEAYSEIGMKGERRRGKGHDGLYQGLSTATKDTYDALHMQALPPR

Substance | Area | Coverage | Peptides (number identified)
LCK (from UniProt P06239 2-509) (enzyme) | 6.84e+08 | 32% | 
PIK3CD (from UniProt O00329 1-1044) (enzyme) | 1.79e+08 | 13% | 
PIK3R1 (from UniProt P27986 2-724) | 2.3e+08 | 17% | 

Continued, values first:

Area | Coverage | Peptides (number identified) | Substance
1.89e+07 | 3% | 2 | THEMIS (from UniProt Q8N1K5 1-641)
1.59e+08 | 32% |  | CD8α (from UniProt P01732 22-235) (receptor)
